For eight substances, Kd and stoichiometry N results are on record in publication PMC11782079.

One test deals with FaRel2-Δ166–206 (Coprobacillus sp. D7). The test is described as follows: ITC; ATfaRel2 or variant in the syringe at 200-150 uM, FaRel2 in the cell at 15-20 uM; 25 °C; 25 mM HEPES pH 7.6, 300 mM NaCl, 2 mM MgCl2, 1 mM TCEP. In general terms: In ITC the heat of successive injections is recorded.
With “ATfaRel2 antitoxin (wild type) (natural protein)”, the Kd (in general, the concentration at which binding is half-saturated) was 3.3 µM.

The next test has as its target Coprobacillus sp. D7 FaRel2 toxin, catalytically impaired Y128F variant (Coprobacillus sp. D7).
Assay: not given
Consider ATfaRel2 Y51A (natural protein), for which the Kd came out at 1.52 µM and the stoichiometry N (usually a count of units in the complex or per binding partner) was 0.9.
Substance ATfaRel2 A50M (natural protein) yielded a stoichiometry N of 1.1.
The same measure, in the same setting: the figure for “Coprobacillus sp. D7 ATfaRel2 antitoxin (natural protein)” is 1.1.
ATfaRel2 Y54A (natural protein) registered a dissociation constant (Kd) of 8.75 µM and a stoichiometry N of 0.92.
In the case of ATfaRel2 V43A (natural protein), the stoichiometry N amounted to 0.97.
Turning to ATfaRel2 I45A (natural protein), the Kd stood at 0.868 µM and the stoichiometry N turned out to be 0.91.
Taken in the same sequence, the figures for ATfaRel2 F59A (natural protein) were 2.15 µM and 0.99.
